Substitutions are numbered along the chain they refer to. Values belong to the binder of their own block, whether it stands above or below them.
Legend:
[1] = biological target: T1, Full length human HtrA1 (HuHtrA1) (Q23-P480), N-terminal His6 tag (human, UniProt Q92743 23-480); assay: cell-based or functional assay
[2] = biological target: T2, Full length murine HtrA1 (MuHtrA1) (P24-P480), N-terminal His6 tag (murine, UniProt Q9R118 24-480); assay: cell-based or functional assay
[3] = biological target: T3, HuHtrA1_PD(E247A) (human, UniProt F1N152 168-386 (bovine entry)); assay: binding ELISA, plate coated with mutant at 1 ug/ml, 20 min incubation
T3 construct: Alanine mutant of HuHtrA1_PD; also called HuHtrA1 mutant E247A; not shown: thrombin cleavage site
T3 chain: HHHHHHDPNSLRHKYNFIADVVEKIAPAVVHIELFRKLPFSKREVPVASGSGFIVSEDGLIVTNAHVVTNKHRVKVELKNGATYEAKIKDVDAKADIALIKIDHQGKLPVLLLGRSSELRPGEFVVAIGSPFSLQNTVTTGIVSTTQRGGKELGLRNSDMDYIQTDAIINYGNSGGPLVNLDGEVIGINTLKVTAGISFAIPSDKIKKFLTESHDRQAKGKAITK

[4] = biological target: T4, HuHtrA1_PD(T223A) (human, UniProt F1N152 168-386 (bovine entry)); assay: as above
T4 construct: Alanine mutant of HuHtrA1_PD; also called HuHtrA1 mutant T223A; not shown: thrombin cleavage site
T4 chain: T3 chain with T69A, A93E

[5] = biological target: T5, HuHtrA1_PD(K243A) (human, UniProt F1N152 168-386 (bovine entry)); assay: as above
T5 construct: Alanine mutant of HuHtrA1_PD; also called HuHtrA1 mutant K243A; not shown: thrombin cleavage site
T5 chain: T3 chain with K89A, A93E

[6] = biological target: T6, HuHtrA1_PD(V201A) (human, UniProt F1N152 168-386 (bovine entry)); assay: as above
T6 construct: Alanine mutant of HuHtrA1_PD; also called HuHtrA1 mutant V201A; not shown: thrombin cleavage site
T6 chain: T3 chain with V47A, A93E

[7] = biological target: T7, HuHtrA1_PD(K225A) (human, UniProt F1N152 168-386 (bovine entry)); assay: as above
T7 construct: Alanine mutant of HuHtrA1_PD; also called HuHtrA1 mutant K225A; not shown: thrombin cleavage site
T7 chain: T3 chain with K71A, A93E

[8] = biological target: T8, HuHtrA1_PD(H220A) (human, UniProt F1N152 168-386 (bovine entry)); assay: as above
T8 construct: Alanine mutant of HuHtrA1_PD; also called HuHtrA1 mutant H220A; not shown: thrombin cleavage site
T8 chain: T3 chain with H66A, A93E

[9] = biological target: Protease domain of human HtrA1 (HuHtrA1_PD), residues D161-K379 (human, UniProt F1N152 168-386 (bovine entry)); assay: cell-based or functional assay
[10] = biological target: T1, Full length human HtrA1 (HuHtrA1) …; assay: cell-based or functional assay; remark: listed apart in the source
[11] = biological target: T1, Full length human HtrA1 (HuHtrA1) …; assay: phage competition ELISA: Fab-phage pre-incubated with serially diluted soluble HuHtrA1 (x axis), unbound phage captured on HuHtrA1-coated plate
Procedure: (§1) MAXISORP™ microtiter plates were coated with HuHtrA1 at 2 μg/ml in PBS for 2 hr at RT and then blocked with PBST buffer for another hour at RT. Purified phage from culture supernatants were incubated with serially diluted HuHtrA1 or MuHtrA1 in PBST buffer in a tissue-culture microtiter plate for an hour, after which 80 μl of the mixture was transferred to the HuHtrA1-coated wells for 15 minutes to capture unbound phage. The plate was washed with PBT buffer, and HRP-conjugated anti-M13 (Amersham Pharmacia Biotech) was added (1:5000 in PBST buffer) for one hour. The plate was washed with PBT buffer and developed by adding tetramethylbenzidine substrate (Kirkegaard and Perry Laboratories, Gaithersburg, Md.). The absorbance at 450 nm was plotted as a function of HuHtrA1 or MuHtrA1 concentration in solution to determine phage IC₅₀.

[12] = biological target: T1, Full length human HtrA1 (HuHtrA1) …; assay: SPR (BIAcore T100), single-cycle kinetics, biotinylated human HtrA1 captured on streptavidin, Fab in solution
Excerpt: (§2) To determine the binding affinity of HtrA1 antibodies by single cycle kinetics, Surface Plasmon Resonance (SRP) measurement with a BIAcore™ T100 instrument was used. Briefly, a series S sensor chip CM5 was activated with EDC and NHS reagents according to the supplier's instructions, and streptavidin (Pierce) was coupled to achieve approximately 2000 response units (RU), followed by blocking un-reacted groups with 1M ethanolamine.
(§3) For kinetics measurements, biotinylated human or murine HtrA1 was first injected at 10 ul/min flow rate to capture approximately 100 RU at 3 different flow cells (FC), except for FC1 (reference), and then 5-fold serial dilutions of anti-HtrA1 Fab in HBS-P buffer (0.01M HEPES pH 7.4, 0.15M NaCl, 0.005% surfactant P20) from low (0.48 nM) to high (300 nM) [5 points] were injected (flow rate: 30 μl/min) one after the other in the same cycle with no regeneration between injections. The sensorgram was recorded and subject to reference and buffer subtraction before evaluation by BIAcore™ T100 Evaluation Software (version 2.0). Association rates (km) and dissociation rates (koff) were calculated using a simple one-to-one Langmuir binding model. The equilibrium dissociation constant (Kd) was calculated as the ratio koff/kₒₙ.

[13] = biological target: T2, Full length murine HtrA1 (MuHtrA1) …; assay: SPR (BIAcore T100), single-cycle kinetics, biotinylated murine HtrA1 captured on streptavidin, Fab in solution
Excerpt: as §2, §3

[14] = biological target: T2, Full length murine HtrA1 (MuHtrA1) …; assay: phage competition ELISA: Fab-phage pre-incubated with serially diluted soluble MuHtrA1 (x axis), unbound phage captured on HuHtrA1-coated plate
Procedure: as §1

T2 sequence (Q9R118 other isoform, or with tags, fused parts or gaps): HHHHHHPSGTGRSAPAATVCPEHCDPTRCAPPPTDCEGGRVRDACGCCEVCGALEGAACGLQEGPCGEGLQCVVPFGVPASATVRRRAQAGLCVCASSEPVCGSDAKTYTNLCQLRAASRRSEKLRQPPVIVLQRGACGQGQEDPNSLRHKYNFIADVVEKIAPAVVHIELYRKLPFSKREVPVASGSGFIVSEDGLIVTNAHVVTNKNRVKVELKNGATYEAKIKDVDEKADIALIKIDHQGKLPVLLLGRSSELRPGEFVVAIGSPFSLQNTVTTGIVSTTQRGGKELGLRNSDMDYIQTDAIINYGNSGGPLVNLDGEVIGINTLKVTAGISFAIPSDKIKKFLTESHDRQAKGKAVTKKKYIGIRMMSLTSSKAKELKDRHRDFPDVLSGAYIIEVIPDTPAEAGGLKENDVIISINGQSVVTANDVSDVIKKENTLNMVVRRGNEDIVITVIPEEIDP
T1 sequence (Q92743 other isoform, or with tags, fused parts or gaps): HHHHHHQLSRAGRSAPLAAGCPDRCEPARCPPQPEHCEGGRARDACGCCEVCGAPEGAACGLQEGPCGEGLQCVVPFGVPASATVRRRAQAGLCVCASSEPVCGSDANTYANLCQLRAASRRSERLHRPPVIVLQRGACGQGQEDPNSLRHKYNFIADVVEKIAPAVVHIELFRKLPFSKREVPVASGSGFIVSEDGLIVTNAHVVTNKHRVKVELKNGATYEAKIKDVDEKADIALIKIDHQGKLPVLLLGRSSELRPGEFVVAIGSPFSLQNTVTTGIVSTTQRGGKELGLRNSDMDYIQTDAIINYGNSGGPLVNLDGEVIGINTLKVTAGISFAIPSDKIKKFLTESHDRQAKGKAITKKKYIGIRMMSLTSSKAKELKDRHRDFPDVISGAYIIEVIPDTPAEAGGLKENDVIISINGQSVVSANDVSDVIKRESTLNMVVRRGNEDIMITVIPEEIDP
Protease domain of human HtrA1 (HuHtrA1_PD), residues D161-K379, sequence (F1N152 other isoform, or with tags, fused parts or gaps): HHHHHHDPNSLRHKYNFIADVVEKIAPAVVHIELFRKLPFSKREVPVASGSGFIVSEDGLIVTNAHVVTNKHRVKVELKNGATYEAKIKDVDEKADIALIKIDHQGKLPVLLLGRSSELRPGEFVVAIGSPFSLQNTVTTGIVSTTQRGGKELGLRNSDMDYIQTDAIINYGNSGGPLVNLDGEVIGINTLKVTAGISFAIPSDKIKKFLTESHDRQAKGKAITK

B1: IgG94 (anti-HtrA1 antibody YW505.94, IgG format) (antibody, V domains shown)
VH: EVQLVESGGGLVQPGGSLRLSCAASGFNISGYYIHWVRQAPGKGLEWVGWIDPYGGDTNYADSVKGRFTISADTSKNTAYLQMNSLRAEDTAVYYCARGTFLTSWGHYFDYWGQGT
VL: DIQMTQSPSSLSASVGDRVTITCRASQDVSTAVAWYQQKPGKAPKLLIYSASFLYSGVPSRFSGSGSGTDFTLTISSLQPEDFATYYCQQSYTTPPTFGQGTKVEIKR
notes: The VH as printed ends at WGQGT; also called antibody 94; Ab94
IC50, inhibition of BODIPY FL casein hydrolysis [1]: 8.3 nM
IC50, inhibition of H2-Opt peptide hydrolysis (FRET assay) [1]: 1.8 nM
fold increase in inhibitory potency of IgG94 vs. Fab94 [1]: ~16 fold
IC50, inhibition of BODIPY FL casein hydrolysis [2]: 5.4 nM
fold reduction in binding (alanine mutant) [3]: ≥ 5 fold
fold reduction in binding (alanine mutant) [4]: ≥ 5 fold
fold reduction in binding (alanine mutant) [5]: ≥ 5 fold
fold reduction in binding (alanine mutant) [6]: ≥ 5 fold
fold reduction in binding (alanine mutant) [7]: ≥ 5 fold
fold reduction in binding (alanine mutant) [8]: ≥ 5 fold

B3: YW505.94a Fab (Fab, V domains shown)
VH: B1 VH with N28S
VL: B1 VL
notes: Tested as Fab
IC50 (read off the curve) [11]: ~6 nM
Kd [12]: 55 nM
koff [12]: 0.0448 s⁻¹
kon [12]: 813000 M⁻¹ s⁻¹
Kd [13]: 58 nM
koff [13]: 0.0856 s⁻¹
kon [13]: 1.48e+06 M⁻¹ s⁻¹

B4: YW505.94a.28 Fab (Fab, V domains shown)
VH: B1 VH with N28S
VL: B1 VL with D28S, V29I, S30N, A32Y, V33L, Y92D, T93D
Kd [12]: 3.4 nM
koff [12]: 0.00574 s⁻¹
kon [12]: 1.69e+06 M⁻¹ s⁻¹
IC50, inhibition of H2-Opt hydrolysis (FRET assay, 1.5 nM HuHtrA1_PD) [9]: 2.03 nM
IC50, inhibition of H2-Opt hydrolysis (FRET assay, 1.0 nM HuHtrA1) [10]: 1.95 nM
Kd [13]: 4.6 nM
koff [13]: 0.0093 s⁻¹
kon [13]: 2.02e+06 M⁻¹ s⁻¹

The next lines start with the values.

IC50, inhibition of H2-Opt hydrolysis (FRET assay, 1.5 nM HuHtrA1_PD) [9]: 0.229 nM
IC50, inhibition of H2-Opt hydrolysis (FRET assay, 1.0 nM HuHtrA1) [10]: 0.335 nM
B2: YW505.94a.28 IgG (antibody, V domains shown)
VH: B1 VH with N28S
VL: B1 VL with D28S, V29I, S30N, A32Y, V33L, Y92D, T93D

IC50 (read off the curve) [14]: ~2 nM
IC50 (read off the curve) [11]: ~0.5 nM
Kd [12]: 2.6 nM
koff [12]: 0.00784 s⁻¹
kon [12]: 2.97e+06 M⁻¹ s⁻¹
Kd [13]: 1.6 nM
koff [13]: 0.00455 s⁻¹
kon [13]: 2.82e+06 M⁻¹ s⁻¹
B5: YW505.94a.54 Fab (Fab, V domains shown)
VH: B1 VH with N28S
VL: B1 VL with D28V, S30G, T31N, A32Y, V33L, Y92D, T93D, T94H

Reference: US20190016826A1 (Genentech, published 2019)
